Measurements published in article PMC7099005, “Function-based high-throughput screening for antibody antagonists and agonists against G protein-coupled receptors” (Communications Biology, 2020).

B1: sdAb antagonist JN400 (VHH)
VHH: QVQLVESGGGSVQSGGSLRLSCAASGSTYRSHCMGWFRQAPGKEREEVAIMTRSRGTSYADSVKGRFTISQDNTKNILYLQMNSLKPEDTAMYYCAAVPRAGIGDGGYCKWNMKDSGSWGQGTLVTVSS
B2: sdAb antagonist JN402 (VHH)
VHH: QVQLVESGGGSVQAGGSLRLSCAASGSTYSSHCMGWFRQAPGKEREEVALMTRARGTSYADSVKGRFTISQDNTKNILYLQMNSLKPEDTAMYYCAAVPRAGIETGAYCKWNMKDSGSWGQGTLVTVSS
B3: sdAb antagonist JN406 (VHH)
VHH: EVQLVESGGGSVQSGGSLRLSCAASGSTYRSHCMGWFRQAPGKEREGVAIMTSRGTTYADSVKGRFTISQDNTKNIFYLQMNSLKPEDTAMYYCAAVPRAGIGDGAFCKWNMKDSGSWGQGTLVTVSS
B4: sdAb antagonist JN411 (VHH)
VHH: HVQLVESGGGSVQAGGSLRLTCAASGLAYSRTCMGWFRQAPGKEREVVATIRRDGTTTYADSVKGRFTISRDNTRNTLALQMNSLKPEDSAMYYCAAVWVALGVPTSVCPSEYKFWGQGTLVTVSS
B5: sdAb antagonist JN412 (VHH)
VHH: HVQLVESGGGSVQAGGSLRLSCAASGSTYRSHCMGWFRQAPGKEREGVAIMTSRGTTYADSVKGRFTISQDNTKNIFYLQMNSLKPEDTAMYYCAAVPRAGIGDGAFCKWNMKDSGSWGQGTLVTVSS
B6: sdAb antagonist JN413 (VHH)
VHH: DVQLVESGGGSVQSGGSLRLSCAASGSTYRSHCMGWFRQAPGKEREEVAIMTRSRGTSYADSVKGRFTISQDNTKNILYLQMNSLKPEDTAMYYCAAVPRAGIGDGAYCKWNMKDSGSWGQGTLVTVSS
B7: sdAb antagonist JN414 (VHH)
VHH: QVQLVESGGGSVQSGGSLTLSCAASGSTYSSHCMGWFRQAPGKEREGVALMTRSRGTSYADSVKGRFTISQDNTKNILYLQMNSLKPEDTAMYYCAAVPRAGIESGAYCKWNMKDSGSWGQGTLVTVSS
B8: sdAb antagonist JN401 (VHH)
VHH: HVQLVESGGGSVQSGGSLRLSCVASGITFSLYCMYWFRQAPGKEREAVASIRSTGATVYGDSVKGRFTISRDSAKNTLYLQMNSLNPEDTAMYYCAAAKKMLYGPGCGSYKDWGQGIQVTVSS
B9: sdAb antagonist JN409 (VHH)
VHH: QVQLVESGGGSVQSGGSLRLSCAASGDTSSRSCMGWFRQAPGKEREWVGRILNAGITSYADSVKGRFTISQDNVKNTLYLQMNSLNSEDTAIYYCAAGRTSYAGSWYCRYNYWGQGTQVTVSS
B10: sdAb agonist JN300 (VHH)
VHH: HVQLVESGGGSVQAGGSLRLSCAASGYVGSMGWFRQAPGKDREGVAAFDFDGRAKHADSVKGRFTISRDNAKNTLYLQMNNLKPEDTAMYYCARSARQLLMLSHNPSDFGYWGQGTQVTVSS
notes: camelid sdAb from a camel immunised with human APJ nanodiscs; source: FreeStyle 293F, transient (pTT5), purified (Ni-NTA)
B11: sdAb antagonist JN404 (VHH)
VHH: QVQLVESGGGSVQAGGSLTLSCVGSGFSWSLNCMSWFRQAPGSEREGVAIFYSETGGAYYADSVEGRFSISQVNAGNTVLLRMNSLRPEDTAMYYCAAGYGCGSTESWWTYDYIFWGQGTLVTVSS
notes: as for B10

Tests used:
[1] = biological target: T1, human apelin receptor (APJ), wild type (Homo sapiens, UniProt P35414); test: cell-based or functional assay
[2] = biological target: T1, human apelin receptor (APJ), wild type; test: flow cytometry on cells; 2 x 10^5 HEK293FT cells stably expressing HA-tagged huAPJ or its mutants stained with 250 nM soluble sdAb at 4 °C for 1 h; mouse anti-his antibody and Alexa Fluor 488 goat anti-mouse; sdAb GeoMean relative to anti-HA staining, normalised to WT APJ; conditions: one partner purified

T1 sequence (P35414 whole entry): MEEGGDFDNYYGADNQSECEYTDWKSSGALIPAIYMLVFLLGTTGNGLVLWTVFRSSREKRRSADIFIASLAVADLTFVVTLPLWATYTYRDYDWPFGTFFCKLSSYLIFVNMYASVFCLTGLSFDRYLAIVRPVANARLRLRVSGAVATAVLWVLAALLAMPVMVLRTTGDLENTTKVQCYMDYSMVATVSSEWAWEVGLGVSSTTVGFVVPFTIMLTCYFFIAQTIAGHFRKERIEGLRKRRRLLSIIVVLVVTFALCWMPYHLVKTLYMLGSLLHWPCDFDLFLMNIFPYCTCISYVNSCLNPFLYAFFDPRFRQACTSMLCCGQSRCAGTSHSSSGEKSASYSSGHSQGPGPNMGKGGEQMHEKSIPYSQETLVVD

Binder | IC50 of soluble sdAb in APJ PathHunter β-arrestin assay, antagonist mode (apelin 13 at EC80; blocks apelin 13 with APJ) [1] [nM] | binding result [2]
B1 | < 200 | 
B2 | < 200 | 
B3 | < 200 | 
B4 | < 200 | 
B5 | < 200 | 
B6 | < 200 | 
B7 | < 200 | 
B8 | > 200 | 
B9 | > 200 | 
B10 |  | binds
B11 |  | binds
